Test results as given in article doi:10.1101/2022.01.19.476998 (bioRxiv, 2022).

Target: SARS-CoV-2 Spike S1 (Omicron) (SARS-CoV-2 Omicron B.1.1.529 (BA.1), strain)
Assay: SPR

B1: Cilgavimab (antibody, V domains shown)
VH: EVQLVESGGGLVKPGGSLRLSCAASGFTFRDVWMSWVRQAPGKGLEWVGRIKSKIDGGTTDYAAPVKGRFTISRDDSKNTLYLQMNSLKTEDTAVYYCTTAGSYYYDTVGPGLPEGKFDYWGQGTLVTVSS
VL: not shown
Does B1 bind?
Result: binds
